The text below walks through data of paper PMC10338342, “Cooperation between bHLH transcription factors and histones for DNA access” (Nature, 2023).

B1: mouse CLOCK bHLH (residues 29–89) with an additional C-terminal tryptophan (domain or fragment)
chain: DDKDKAKRVSRNKSEKKRRDQFNVLIKELGSMLPGNARKMDKSTVLQKSIDFLRKHKETTAW
notes: CLOCK, mouse, bHLH, residues 29-89; additional tryptophan engineered at the C terminus to allow for UV detection; source: E. coli vector (pET28-derived), expressed and purified separately (HisTrap HP)
B2: CLOCK bHLH PAS-AB (residues 26-395), chain of the CLOCK-BMAL1 heterodimer (domain or fragment, mouse, UniProt O08785 26-395, looked up)
chain: VEEDDKDKAKRVSRNKSEKKRRDQFNVLIKELGSMLPGNARKMDKSTVLQKSIDFLRKHKETTAQSDASEIRQDWKPTFLSNEEFTQLMLEALDGFFLAIMTDGSIIYVSESVTSLLEHLPSDLVDQSIFNFIPEGEHSEVYKILSTHLLESDSLTPEYLKSKNQLEFCCHMLRGTIDPKEPSTYEYVRFIGNFKSLTSVSTSTHNGFEGTIQRTHRPSYEDRVCFVATVRLATPQFIKEMCTVEEPNEEFTSRHSLEWKFLFLDHRAPPIIGYLPFEVLGTSGYDYYHVDDLENLAKCHEHLMQYGKGKSCYYRFLTKGQQWIWLQTHYYITYHQWNSRPEFIVCTHTVVSYAEVRAERRRELGIEESL
notes: CLOCK, mouse, bHLH PAS-AB, residues 26-395; Always present as part of m1; made a molecule of its own for the contacts that the structures and cross-links assign to CLOCK
B3: CLOCK-BMAL1 bHLH PAS-AB heterodimer (complex)
chain 1: B2 chain
chain 2: not shown
notes: CLOCK, mouse, bHLH PAS-AB, residues 26-395; BMAL1, mouse, bHLH PAS-AB, residues 62-441; also called CB; CLOCK-BMAL1 WT; source: insect cells (Spodoptera frugiperda or Hi5), purified (Ni-NTA, TEV cleavage, heparin, Superdex 200); copies: 1 + 1
B4: BMAL1 bHLH PAS-AB (residues 62-441), chain of the CLOCK-BMAL1 heterodimer (domain or fragment)
chain: not shown
notes: BMAL1, mouse, bHLH PAS-AB, residues 62-441; Always present as part of m1; made a molecule of its own for the contacts that the structures and cross-links assign to BMAL1

The target in data set [1] is T1, mouse BMAL1 bHLH (residues 73–135) with an additional C-terminal tryptophan (mouse, UniProt Q9WTL8 73-135).
T1 construct: BMAL1, mouse, bHLH, residues 73-135; additional tryptophan engineered at the C terminus to allow for UV detection; source: E. coli vector (pET28-derived), expressed and purified separately (HisTrap HP)
The data set can be described thus: SEC; CLOCK bHLH and BMAL1 bHLH purified separately, mixed at equimolar ratios, about one hour on ice, S75 10/300 GL column. As to conditions: both partners purified. (In general: SEC sorts molecules by how far they enter the pores of the column.)

In data set [2] the target is B4. Nature of the data set: cryo-EM structure; CLOCK-BMAL1 on a W601-variant nucleosome with a solvent-exposed E-box at SHL+5.8 (1:1.5 NCP:TF), GraFix glutaraldehyde cross-linked; 3.6 Å overall, PAS domains 9-11 Å. As to conditions: both partners purified.
The target of data set [3] is T2, histone H4 (human), in the nucleosome (human, UniProt P62805 1-103).
T2 construct: Always part of m4; source: in the reconstituted nucleosome
Nature of the data set: cryo-EM structure; CLOCK-BMAL1 on the endogenous Por enhancer nucleosome with tandem E-boxes 7 bp apart (1:3), GraFix cross-linked; 3.8 Å overall. As to conditions: both partners purified.

Data set [4] deals with the molecule itself. The description is as above.
Data set [5] has as its target T2, histone H4 (human), in the nucleosome. The data set can be described thus: cryo-EM structure; CLOCK-BMAL1 on a W601-variant nucleosome with a histone-facing E-box at SHL−6.2 (1:3 NCP:TF), GraFix cross-linked; 3.8 Å overall; PAS domains placed by Rosetta local docking with density scoring and one cross-link. As to conditions: both partners purified.
The target of data set [6] is histone H3.1 (human), in the nucleosome (human, UniProt P68431 1-136). Nature of the data set: cross-linking; XL-MS with DSSO, TF and nucleosome mixed 1.5:1; CLOCK-BMAL1 with NCP SHL−6.2. As to conditions: both partners purified.

B1: the binding result in data set [1] is “binds”.
Take B2: the binding result in data set [2] and in data set [3] was “binds” throughout.
For B3, in data set [4], the binding result is reported as “binds”.
For B4, the binding result in data set [5] and in data set [6] was “binds” in each case.
